Numbered stars: 1 amine (or outer) side, 2 acyl side, 3 side chain; on linkers, the order of the positions; unused ones are H or OH. Square brackets hold non-standard residues; d marks the D form. Peptide text beside a SMILES is read from it. * marks the point of attachment. Exatecan = CC[C@@]1(O)C(=O)OCc2c1cc1n(c2=O)Cc2c-1nc1cc(F)c(C)c3c1c2[C@@H](N*)CC3; Hexanoyl(6-maleimido) = O=C1C=CC(=O)N1CCCCCC(=O)*; NHCH2OCH2CO = O=C(COCN[*:1])[*:2]
Assays:
[1] = Size exclusion chromatography (SEC) analysis of the antibody-drug conjugates; assay type: physicochemical; conditions: SEC purity of the antibody-drug conjugate
Experimental: Size exclusion chromatography (SEC) analysis column is Tskgel G3000SWXL (TOSOH, 0008541); mobile phase is 0.1 M PB, pH7.0, 0.1M NaCl; isocratic elution, flow rate: 1 mL/min; column temperature: 25° C. Detection wavelength is 280 nm and 366 nm, respectively. Hydrophobic interaction chromatography (HIC) analysis column is Butyl-NPR 4.6×100 mm (TOSOH, 0042168); mobile phase A is 50 mM PB, pH7.0, 1.5 M (NH4)2SO4; mobile phase B is 50 mM PB, pH7.0, 20% acetonitrile. Separation gradient: changing from 0% B to 100% B in 2-20 min, column temperature: 30° C., flow rate: 0.6 mL/min. Detection wavelength is 280 nm and 366 nm, respectively.

[2] = Hydrophobic interaction chromatography (HIC) analysis of the antibody-drug conjugates; assay type: physicochemical; conditions: main peak of the antibody-drug conjugate, Butyl-NPR column
Experimental: Size exclusion chromatography (SEC) analysis column is Tskgel G3000SWXL (TOSOH, 0008541); mobile phase is 0.1 M PB, pH7.0, 0.1M NaCl; isocratic elution, flow rate: 1 mL/min; column temperature: 25° C. Detection wavelength is 280 nm and 366 nm, respectively. Hydrophobic interaction chromatography (HIC) analysis column is Butyl-NPR 4.6×100 mm (TOSOH, 0042168); mobile phase A is 50 mM PB, pH7.0, 1.5 M (NH4)2SO4; mobile phase B is 50 mM PB, pH7.0, 20% acetonitrile. Separation gradient: changing from 0% B to 100% B in 2-20 min, column temperature: 30° C., flow rate: 0.6 mL/min. Detection wavelength is 280 nm and 366 nm, respectively. The results are shown in Table 1 and FIG. 1-FIG. 6 (FIG. 1 comprises FIG. 1A and FIG. 1B; FIG. 2 comprises FIG. 2A and FIG. 2B; FIG. 3 comprises FIG. 3A, FIG. 3B, FIG. 3C, FIG. 3D, FIG. 3E, FIG. 3F, FIG. 3G and FIG. 3H; FIG. 4 comprises FIG. 4A and FIG. 4B; FIG. 5 comprises FIG. 5A and FIG. 5B; and FIG. 6 comprises FIG. 6A, FIG. 6B, FIG. 6C, […], FIG. 6E, FIG. 6F, FIG. 6G and […]).

Cathepsin B enzyme = molecular target: T1, Cathepsin B enzyme (Homo sapiens, UniProt P07858); test: In vitro enzymatic release of free toxin molecules by Cathepsin B; assay type: biochemical
T1 construct: purchased Sino Biological 10483-H08H
Experimental: Preparation of activated buffer solution (10 mM L-cysteine (ACRO, cat #: 173600250), 15 mM EDTA, 0.1M His HCl, pH 5.5): […] of solid cysteine was weighed, adding 3 mL of 0.1M His HCl (pH 5.5) solution for dissolution, and then adding 90 μL of 0.5M EDTA solution to mix well.
[…] At each detection time point, 50 μL of enzyme digestion solution was taken, adding 2.5 μL of 10% TFA solution to terminate the reaction for enzyme digestion kinetics detection.
Negative control preparation: 30 μL of activated buffer was taken to stay in 37° C. water bath for 15 minutes, then adding 300 μL of 0.1M His HCl (pH 5.5) solution and 36 μL of 9D1-LD-38 (375 μg) to stay in 37° C. water bath overnight.

[3] = Time 0 h, linker-toxin to Cathepsin B about 1200:1, 37° C.

Row | Structure (SMILES) | SEC % [1] | HIC retention time [2] | also measured
1 | CC[C@@]1(O)C(=O)OCc2c1cc1n(c2=O)Cc2c-1nc1cc(F)c(C)c3c1c2[C@@H](NC(=O)OCc1ccc(NC(=O)[C@H](C)NC(=O)[C@@H](NC(=O)CCCCCN(C)CCN2C(=O)C=CC2=O)C(C)C)cc1CN(C)C(=O)CCC[N+](C)(C)CCCS(=O)(=O)[O-])CC3 [LD-98] | 98.79% | 13.121 min | –
2 | CC[C@@]1(O)C(=O)OCc2c1cc1n(c2=O)Cc2c-1nc1cc(F)c(C)c3c1c2[C@@H](NC(=O)OCc1ccc(NC(=O)[C@H](CCC(=O)NCC[N+](C)(C)CCCS(=O)(=O)[O-])NC(=O)[C@@H](NC(=O)CCOCCOCCOCCOCCNC(=O)CCN2C(=O)C=CC2=O)C(C)C)cc1)CC3 [LD-38] | – | 13.57 min | Cathepsin B enzyme digestion kinetics (Cathepsin B enzyme; [3]): 0%; Cathepsin B enzyme digestion kinetics (Cathepsin B enzyme; Time 1 h): 20%; Cathepsin B enzyme digestion kinetics (Cathepsin B enzyme; Time 2 h): 77%; Cathepsin B enzyme digestion kinetics (Cathepsin B enzyme; Time 20 h): 100%
3 | CC[C@@]1(O)C(=O)OCc2c1cc1n(c2=O)Cc2c-1nc1cc(F)c(C)c3c1c2[C@@H](NC(=O)OCc1ccc(NC(=O)[C@H](CCC(=O)N(CCCS(=O)(=O)[O-])CC[N+](C)(C)C)NC(=O)[C@@H](NC(=O)CCOCCOCCOCCOCCNC(=O)CCN2C(=O)C=CC2=O)C(C)C)cc1)CC3 [LD-89] | 98.00% | 13.392 min | –
4 | CC[C@@]1(O)C(=O)OCc2c1cc1n(c2=O)Cc2c-1nc1cc(F)c(C)c3c1c2[C@@H](NC(=O)OCc1ccc(NC(=O)[C@H](C)NC(=O)[C@@H](NC(=O)[C@H](CCC(=O)O)NC(=O)CCCCCN2C(=O)C=CC2=O)C(C)C)cc1)CC3 [LD-27] | – | 15.107 min | –
5 | CC[C@@]1(O)C(=O)OCc2c1cc1n(c2=O)Cc2c-1nc1cc(F)c(C)c3c1c2[C@@H](NC(=O)OCc1ccc(NC(=O)[C@H](C)NC(=O)[C@@H](NC(=O)CCCCCN2C(=O)C=CC2=O)C(C)C)cc1CN(C)C(=O)CN(C)C(=O)CN(C)C(=O)CN(C)C(=O)CN(C)C(=O)CN(C)C(=O)CN(C)C(=O)CN(C)C(=O)CN(C)C(=O)CN(C)C(=O)CN(C)C(C)=O)CC3 [LD-74, reference compound] | 99.53% | 13.583 min | –
6 | CC[C@@]1(O)C(=O)OCc2c1cc1n(c2=O)Cc2c-1nc1cc(F)c(C)c3c1c2[C@@H](NC(=O)OCc1ccc(NC(=O)[C@H](C)NC(=O)[C@@H](NC(=O)[C@H](CCC(=O)NCC[N+](C)(C)CCCS(=O)(=O)[O-])NC(=O)CCOCCOCCOCCOCCNC(=O)CCN2C(=O)C=CC2=O)C(C)C)cc1)CC3 [LD-37] | 97.50% | 14.069 min | –
7 | CC[C@@]1(O)C(=O)OCc2c1cc1n(c2=O)Cc2c-1nc1cc(F)c(C)c3c1c2[C@@H](NC(=O)COCNC(=O)CNC(=O)[C@H](Cc1ccccc1)NC(=O)CNC(=O)CNC(=O)CCCCCN1C(=O)C=CC1=O)CC3 [Deruxtecan (MC-GGFG-Dxd), reference compound] ({Hexanoyl(6-maleimido)}-GGFG[NHCH2OCH2CO]-Exatecan) | – | – | Cathepsin B enzyme digestion kinetics (Cathepsin B enzyme; [3]): 0%; Cathepsin B enzyme digestion kinetics (Cathepsin B enzyme; Time 1 h): 0%; Cathepsin B enzyme digestion kinetics (Cathepsin B enzyme; Time 2 h): 0%; Cathepsin B enzyme digestion kinetics (Cathepsin B enzyme; Time 4 h): 0%; Cathepsin B enzyme digestion kinetics (Cathepsin B enzyme; Time 20 h): 0%; Cathepsin B enzyme digestion kinetics (Cathepsin B enzyme; Time 20 h, listed as MC-GGFG-Dxd): does not release any enzyme digestion products
8 | CC[C@@]1(O)C(=O)OCc2c1cc1n(c2=O)Cc2c-1nc1cc(F)c(C)c3c1c2[C@@H](NC(=O)OCc1ccc(NC(=O)[C@H](C)NC(=O)[C@@H](NC(=O)CCOCCOCCOCCOCCNC(=O)CCN2C(=O)C=CC2=O)C(C)C)cc1CN(C)C(=O)CCOCCOCCOCCOCCOCCOCCOCCOCCOC)CC3 [LD-73] | 99.53% | 16.002 min | –
